Bridge positions count the residues as written; N and C are the ends. Primed or numbered codes have the meaning given here. Ends that are not written are not given here. PEG3′ = not defined here

Assay [1] concerns the target T1, Plasmodium falciparum Histidine Rich Protein-2 (Pf.HRP-2) (Plasmodium falciparum).
T1 construct: The construct used in the assays is not described; the whole entry is named
T1 chain: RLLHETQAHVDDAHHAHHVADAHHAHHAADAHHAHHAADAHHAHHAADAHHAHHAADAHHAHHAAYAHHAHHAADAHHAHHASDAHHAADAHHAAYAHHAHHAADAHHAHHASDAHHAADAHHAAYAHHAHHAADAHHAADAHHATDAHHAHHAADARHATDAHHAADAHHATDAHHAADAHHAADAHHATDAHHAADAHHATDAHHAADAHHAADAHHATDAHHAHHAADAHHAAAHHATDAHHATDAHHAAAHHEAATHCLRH
As to the kind of experiment: plot 'Affinity': fraction bound against [Pf.HRP2] (molar); protocol not described.

Assay [2] addresses T2, Full-length His-tagged IL-17A protein (ab166882, Abcam) (human, UniProt Q16552 24-155).
T2 construct: Bought protein; it may not be the whole protein; also called human IL-17A protein; not shown: His tag
T2 sequence: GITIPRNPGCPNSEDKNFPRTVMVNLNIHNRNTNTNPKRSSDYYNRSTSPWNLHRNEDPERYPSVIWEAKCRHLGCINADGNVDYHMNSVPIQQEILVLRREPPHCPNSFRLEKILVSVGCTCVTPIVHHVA
As to the kind of experiment: point ELISA, IL17F or IL17A at 100 nM, mean subtracted fluorescence; protocol not described for this panel.

The target of assay [3] is T2, Full-length His-tagged IL-17A protein …. In words: point ELISA: ligand on NeutrAvidin plate, His-tagged protein at 100 nM, anti-His-AP detection, subtracted fluorescence.
Assay [4] addresses T1, Plasmodium falciparum Histidine Rich …. In words: method not stated, FIG. 15; two Cy(YKYYR) joined by about a 1.5 nm linker.
Assay [5] concerns the target T3, Full-length His-tagged IL-17F protein (ab167911, Abcam) (human, UniProt Q96PD4 31-163).
T3 construct: Bought protein, called 'full-length'; also called human IL-17F protein; not shown: His tag
T3 chain: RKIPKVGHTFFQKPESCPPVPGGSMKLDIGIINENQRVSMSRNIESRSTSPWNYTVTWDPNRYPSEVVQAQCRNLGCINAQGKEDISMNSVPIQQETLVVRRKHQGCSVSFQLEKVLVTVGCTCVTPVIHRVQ
As to the kind of experiment: method not stated, FIG. 12C; biligand with PEG3 linker.

In assay [6] the target is T3, Full-length His-tagged IL-17F protein …. As to the kind of experiment: fluorescence titration of IL17F protein (nM) against the biotinylated biligand; protocol not described for this figure; the arrow from the number points to the PEG3 entry of the legend box.
Assay [7] has as its target T4, His-tagged IL-17F epitope scrambled N-terminal to click handle (C48S) (also: His6 tag, position and spacer not given here).
T4 construct: Chemically synthesized, His6 handle; residues N-terminal to C48S (FFQKPES) scrambled
T4 peptide: SQFEKFPSPPVPGGS
As to the kind of experiment: point ELISA: ligand on NeutrAvidin plate, His-tagged epitope peptide at 2 uM, anti-His-AP detection, no-epitope background subtracted.

Assay [8] deals with T3, Full-length His-tagged IL-17F protein …. As to the kind of experiment: point ELISA, His-IL-17F vs His-IL-17A at 200 and 50 nM.
Assay [9] concerns the target Full-length His-tagged IL-17F protein (ab167911, Abcam) (human) (UniProt Q96PD4). In words: fluorescence titration of IL17F protein (nM) against the biotinylated biligand; protocol not described for this figure.
The target of assay [10] is T3, Full-length His-tagged IL-17F protein …. In words: point ELISA, His-IL-17F vs His-IL-17A at 100 nM.

B1: cy(YKYYR)(SEQ ID NO:29)-linker-cy(GWNVDL)(SEQ ID NO:30) biligand (designed binder)
peptide 1: YKYYR
peptide 2: GWNVDL
modifications: not fully specified (bridges)
notes: also called resultant biligand
Molecule B1 yielded an EC50 in assay [1] of 0.542 nM.

B2: Cy(QKHGP)(SEQ ID NO:15)-PEG3-biotin (peptide)
peptide: QKHGP
modifications: triazole (positions not given here); not fully specified (N-terminus, C-terminus, bridges); also: triazole cyclization via flanking Pra and Az4 residues, order not given here, PEG3-biotin, end not given here
notes: also called PEG3-biotin-modified Cy(QKHGP)
On to B2, for which the binding result in [2] was “no binding (tested: 100 nM)”.

B3: Cy(TKHGP)(SEQ ID NO:16)-PEG3-biotin (peptide)
peptide: TKHGP
modifications: triazole (positions not given here); not fully specified (N-terminus, C-terminus, bridges); also: triazole cyclization via flanking Pra and Az4 residues, order not given here, PEG3-biotin, end not given here
notes: also called PEG3-biotin-modified Cy(TKHGP)
B3: in assay [3], the binding result was “no binding (tested: 100 nM)”.

B4: YKYYR (SEQ ID NO:29) dimer (designed binder)
peptide: YKYYR
modifications: not fully specified (bridges)
notes: also called two Cy(YKYYR) PCCs linked together with about a 1.5 nm long linker; linked biligand
For B4, the EC50 in assay [4] worked out at 20 nM.

B5: Biotin-PEG3-Cy(RSYNK)(SEQ ID NO:28)-PEG3-Cy(RRATS)(SEQ ID NO:9) (designed binder)
peptide 1: RSYNK
peptide 2: RRATS
modifications: not fully specified (N-terminus, bridges); also: macrocycles joined by PEG3 linker (one PEGylated amino acid), attachment not given here, triazole to a chain's N/C-terminus
notes: Two macrocycles covalently joined by one PEGylated amino acid; also called biligand Cy(RSYNK)-PEG3-Cy(RRATS)
B5 gave a Kd in [5] of 0.25 nM. The molecule further returned an EC50 in assay [6] of around 0.25 nM.

B6: Cy(RRATS)(SEQ ID NO:9)-PEG3-biotin (peptide)
peptide: RRATS-{PEG3′-biotin}
modifications: triazole N-C; also: flanking Pra and Az4 residues, sides not given here
notes: also called PEG3-biotin-modified Cy(RRATS)
As for B6, the binding result in assay [7] was “no binding (tested: 2 uM)”. For the same molecule, in assay [8], the “selectivity for IL-17F over IL-17A” value was 2 ratio.

B7: Cy(RRAQS)(SEQ ID NO:10)-PEG3-biotin (peptide)
peptide: RRAQS-{PEG3′-biotin}
modifications: triazole N-C; also: flanking Pra and Az4 residues, sides not given here
notes: also called PEG3-biotin-modified Cy(RRAQS)
Take B7: in assay [7], the binding result is recorded as “no binding (tested: 2 uM)”. The “selectivity for IL-17F over IL-17A” value in assay [8] came out at 2 ratio.

B8: Biotin-PEG3-Cy(RSYNK)(SEQ ID NO:28)-PEG5-Cy(RRATS)(SEQ ID NO:9) (designed binder)
peptide 1: RSYNK
peptide 2: RRATS
modifications: triazole (positions not given here); not fully specified (N-terminus, bridges); also: each chain triazole-cyclized macrocycle, positions not given here, macrocycles joined by PEG5 linker, attachment points not given here
With B8, the EC50 (read off the curve) in assay [9] was found to be 4 nM.

B9: Biotin-PEG3-Cy(RSYNK)(SEQ ID NO:28) (peptide)
peptide: RSYNK
modifications: triazole N-C; not fully specified (N-terminus, C-terminus); also: flanking Pra and Az4 residues, sides not given here
notes: also called PEG3-biotin-modified Cy(RSYNK)
B9: in assay [10], the “selectivity for IL-17F over IL-17A” value was determined as 4 ratio.

B10: Biotin-PEG3-Cy(RSYNK)(SEQ ID NO:28)-PEG2-Cy(RRATS)(SEQ ID NO:9) (designed binder)
peptide 1: RSYNK
peptide 2: RRATS
modifications: triazole (positions not given here); not fully specified (N-terminus, bridges); also: each chain triazole-cyclized macrocycle, positions not given here, macrocycles joined by PEG2 linker, attachment points not given here
With B10, the EC50 (read off the curve) in assay [9] was 4 nM.

B11: Biotin-PEG3-Cy(KKGWP)(SEQ ID NO:23) (peptide)
peptide: KKGWP
modifications: triazole N-C; not fully specified (N-terminus, C-terminus); also: flanking Pra and Az4 residues, sides not given here
notes: also called PEG3-biotin-modified Cy(KKGWP)
As to B11, the “selectivity for IL-17F over IL-17A” value in [10] was found to be 4 ratio.

Source of the values: patent US20210025901A1 (CALIFORNIA INSTITUTE OF TECHNOLOGY, published 2021).
